Data: the MegaScale stability set (Tsuboyama et al. 2023)

B1: EEHEE_rd3_1049 (parent)
chain: TTVKLGDIKVTFDNPEKAKKYAQKLAKIYQLTVHVHGDTIHVK

Variants of: B1
Test: folding stability dG (cDNA display proteolysis); higher = more stable
Conditions: PBS, room temperature

Variant	folding stability dG
TTVKLGDIKVTFDNPEKAKKYAQKLAKIYQLTVHVEGDTIHVK [H36E]	2.66 kcal/mol
TTVKLGDIKVTFDNPEKAKKYAQKLAKIYQLTVHVMGDTIHVK [H36M]	2.46 kcal/mol
TTVKLGDIKVTFDNPEKAKKYAQKLAKIYQLTVHVGGDTIHVK [H36G]	1.16 kcal/mol
TTVKLGDIKVTFDNPEKAKKYAQKLAKIYQLTVHVAGDTIHVK [H36A]	2.12 kcal/mol
TTVKLGDIKVTFDNPEKAKKYAQKLAKIYQLTVHVWGDTIHVK [H36W]	1.99 kcal/mol
TTVKLGDIKVTFDNPEKAKKYAQKLAKIYQLTVHVYGDTIHVK [H36Y]	2.19 kcal/mol
TTVKLGDIKVTFDNPEKAKKYAQKLAKIYQLTVHVKGDTIHVK [H36K]	1.96 kcal/mol
TTVKLGDIKVTFDNPEKAKKYAQKLAKIYQLTVHVNGDTIHVK [H36N]	2.04 kcal/mol
TTVKLGDIKVTFDNPEKAKKYAQKLAKIYQLTVHVDGDTIHVK [H36D]	2.58 kcal/mol
TTVKLGDIKVTFDNPEKAKKYAQKLAKIYQLTVHVPGDTIHVK [H36P]	0.039 kcal/mol
TTVKLGDIKVTFDNPEKAKKYAQKLAKIYQLTVHVSGDTIHVK [H36S]	2.19 kcal/mol
TTVKLGDIKVTFDNPEKAKKYAQKLAKIYQLTVHVRGDTIHVK [H36R]	1.96 kcal/mol
TTVKLGDIKVTFDNPEKAKKYAQKLAKIYQLTVHVFGDTIHVK [H36F]	2.17 kcal/mol
TTVKLGDIKVTFDNPEKAKKYAQKLAKIYQLTVHVVGDTIHVK [H36V]	2.61 kcal/mol
TTVKLGDIKVTFDNPEKAKKYAQKLAKIYQLTVHVQGDTIHVK [H36Q]	2.34 kcal/mol
TTVKLGDIKVTFDNPEKAKKYAQKLAKIYQLTVHVTGDTIHVK [H36T]	2.07 kcal/mol
TTVKLGDIKVTFDNPEKAKKYAQKLAKIYQLTVHVIGDTIHVK [H36I]	2.73 kcal/mol
TTVKLGDIKVTFDNPEKAKKYAQKLAKIYQLTVHVLGDTIHVK [H36L]	2.34 kcal/mol
TTVKLGDIKVTFDNPEKAKKYAQKLAKIYQLTVHVCGDTIHVK [H36C]	3.31 kcal/mol
TTVKLGDIKVTFDNPEKAKKYAQKLAKIYQLTVHVHGDNIHVK [T39N]	1.06 kcal/mol
TTVKLGDIKVTFDNPEKAKKYAQKLAKIYQLTVHVHGDCIHVK [T39C]	2.26 kcal/mol
TTVKLGDIKVTFDNPEKAKKYAQKLAKIYQLTVHVHGDRIHVK [T39R]	0.835 kcal/mol
TTVKLGDIKVTFDNPEKAKKYAQKLAKIYQLTVHVHGDEIHVK [T39E]	1.82 kcal/mol
TTVKLGDIKVTFDNPEKAKKYAQKLAKIYQLTVHVHGDFIHVK [T39F]	1.77 kcal/mol

Variant	folding stability dG
TTVKLGDIKVTFDNPEKAKKYAQKLAKIYQLTVHVHGDWIHVK [T39W]	1.55 kcal/mol
TTVKLGDIKVTFDNPEKAKKYAQKLAKIYQLTVHVHGDGIHVK [T39G]	0.726 kcal/mol
TTVKLGDIKVTFDNPEKAKKYAQKLAKIYQLTVHVHGDMIHVK [T39M]	1.96 kcal/mol
TTVKLGDIKVTFDNPEKAKKYAQKLAKIYQLTVHVHGDDIHVK [T39D]	0.923 kcal/mol
TTVKLGDIKVTFDNPEKAKKYAQKLAKIYQLTVHVHGDPIHVK [T39P]	0.457 kcal/mol
TTVKLGDIKVTFDNPEKAKKYAQKLAKIYQLTVHVHGDIIHVK [T39I]	2.27 kcal/mol
TTVKLGDIKVTFDNPEKAKKYAQKLAKIYQLTVHVHGDVIHVK [T39V]	2.23 kcal/mol
TTVKLGDIKVTFDNPEKAKKYAQKLAKIYQLTVHVHGDQIHVK [T39Q]	1.36 kcal/mol
TTVKLGDIKVTFDNPEKAKKYAQKLAKIYQLTVHVHGDLIHVK [T39L]	1.81 kcal/mol
TTVKLGDIKVTFDNPEKAKKYAQKLAKIYQLTVHVHGDSIHVK [T39S]	1.24 kcal/mol
TTVKLGDIKVTFDNPEKAKKYAQKLAKIYQLTVHVHGDKIHVK [T39K]	0.943 kcal/mol
TTVKLGDIKVTFDNPEKAKKYAQKLAKIYQLTVHVHGDYIHVK [T39Y]	1.71 kcal/mol
TTVKLGDIKVTFDNPEKAKKYAQKLAKIYQLTVHVHGDAIHVK [T39A]	1.13 kcal/mol
TTVKLGDIKVTFDNPEKAKKYAQKLAKIYQLTVHVHGDHIHVK [T39H]	1.58 kcal/mol
TTVKLGDIKVTFDNPEKAKKYAQKLAKIYQLTVHKHGDTIHVK [V35K]	1.24 kcal/mol
TTVKLGDIKVTFDNPEKAKKYAQKLAKIYQLTVHSHGDTIHVK [V35S]	1.17 kcal/mol
TTVKLGDIKVTFDNPEKAKKYAQKLAKIYQLTVHLHGDTIHVK [V35L]	1.7 kcal/mol
TTVKLGDIKVTFDNPEKAKKYAQKLAKIYQLTVHQHGDTIHVK [V35Q]	1.78 kcal/mol
TTVKLGDIKVTFDNPEKAKKYAQKLAKIYQLTVHYHGDTIHVK [V35Y]	2.14 kcal/mol
TTVKLGDIKVTFDNPEKAKKYAQKLAKIYQLTVHNHGDTIHVK [V35N]	1.09 kcal/mol
TTVKLGDIKVTFDNPEKAKKYAQKLAKIYQLTVHGHGDTIHVK [V35G]	0.496 kcal/mol
TTVKLGDIKVTFDNPEKAKKYAQKLAKIYQLTVHTHGDTIHVK [V35T]	1.5 kcal/mol
TTVKLGDIKVTFDNPEKAKKYAQKLAKIYQLTVHEHGDTIHVK [V35E]	1.56 kcal/mol
TTVKLGDIKVTFDNPEKAKKYAQKLAKIYQLTVHWHGDTIHVK [V35W]	1.99 kcal/mol

Variant	folding stability dG
TTVKLGDIKVTFDNPEKAKKYAQKLAKIYQLTVHRHGDTIHVK [V35R]	1.27 kcal/mol
TTVKLGDIKVTFDNPEKAKKYAQKLAKIYQLTVHCHGDTIHVK [V35C]	2.12 kcal/mol
TTVKLGDIKVTFDNPEKAKKYAQKLAKIYQLTVHHHGDTIHVK [V35H]	1.57 kcal/mol
TTVKLGDIKVTFDNPEKAKKYAQKLAKIYQLTVHPHGDTIHVK [V35P]	0.957 kcal/mol
TTVKLGDIKVTFDNPEKAKKYAQKLAKIYQLTVHAHGDTIHVK [V35A]	1.34 kcal/mol
TTVKLGDIKVTFDNPEKAKKYAQKLAKIYQLTVHDHGDTIHVK [V35D]	1.57 kcal/mol
TTVKLGDIKVTFDNPEKAKKYAQKLAKIYQLTVHIHGDTIHVK [V35I]	2.26 kcal/mol
TTVKLGDIKVTFDNPEKAKKYAQKLAKIYQLTVHFHGDTIHVK [V35F]	2.08 kcal/mol
TTVKLGDIKVTFDNPEKAKKYAQKLAKIYQLTVHVHGWTIHVK [D38W]	1.76 kcal/mol
TTVKLGDIKVTFDNPEKAKKYAQKLAKIYQLTVHVHGPTIHVK [D38P]	1.42 kcal/mol
TTVKLGDIKVTFDNPEKAKKYAQKLAKIYQLTVHVHGHTIHVK [D38H]	1.95 kcal/mol
TTVKLGDIKVTFDNPEKAKKYAQKLAKIYQLTVHVHGLTIHVK [D38L]	1.83 kcal/mol
TTVKLGDIKVTFDNPEKAKKYAQKLAKIYQLTVHVHGATIHVK [D38A]	1.94 kcal/mol
TTVKLGDIKVTFDNPEKAKKYAQKLAKIYQLTVHVHGVTIHVK [D38V]	1.57 kcal/mol
TTVKLGDIKVTFDNPEKAKKYAQKLAKIYQLTVHVHGFTIHVK [D38F]	1.7 kcal/mol
TTVKLGDIKVTFDNPEKAKKYAQKLAKIYQLTVHVHGCTIHVK [D38C]	2.12 kcal/mol
TTVKLGDIKVTFDNPEKAKKYAQKLAKIYQLTVHVHGTTIHVK [D38T]	2 kcal/mol
TTVKLGDIKVTFDNPEKAKKYAQKLAKIYQLTVHVHGRTIHVK [D38R]	1.86 kcal/mol
TTVKLGDIKVTFDNPEKAKKYAQKLAKIYQLTVHVHGYTIHVK [D38Y]	1.47 kcal/mol
TTVKLGDIKVTFDNPEKAKKYAQKLAKIYQLTVHVHGETIHVK [D38E]	1.47 kcal/mol
TTVKLGDIKVTFDNPEKAKKYAQKLAKIYQLTVHVHGGTIHVK [D38G]	1.6 kcal/mol
TTVKLGDIKVTFDNPEKAKKYAQKLAKIYQLTVHVHGMTIHVK [D38M]	1.97 kcal/mol
TTVKLGDIKVTFDNPEKAKKYAQKLAKIYQLTVHVHGKTIHVK [D38K]	1.85 kcal/mol
TTVKLGDIKVTFDNPEKAKKYAQKLAKIYQLTVHVHGSTIHVK [D38S]	2.16 kcal/mol

Variant	folding stability dG
TTVKLGDIKVTFDNPEKAKKYAQKLAKIYQLTVHVHGITIHVK [D38I]	1.6 kcal/mol
TTVKLGDIKVTFDNPEKAKKYAQKLAKIYQLTVHVHGNTIHVK [D38N]	2.47 kcal/mol
TTVKLGDIKVTFDNPEKAKKYAQKLAKIYQLTVHVHGQTIHVK [D38Q]	1.85 kcal/mol
TTVKLGDIKVTFDNPEKAKKYAQKLAKIYQLTVHVHGDTEHVK [I40E]	0.224 kcal/mol
TTVKLGDIKVTFDNPEKAKKYAQKLAKIYQLTVHVHGDTDHVK [I40D]	0.287 kcal/mol
TTVKLGDIKVTFDNPEKAKKYAQKLAKIYQLTVHVHGDTGHVK [I40G]	0.535 kcal/mol
TTVKLGDIKVTFDNPEKAKKYAQKLAKIYQLTVHVHGDTAHVK [I40A]	0.282 kcal/mol
TTVKLGDIKVTFDNPEKAKKYAQKLAKIYQLTVHVHGDTFHVK [I40F]	1.6 kcal/mol
TTVKLGDIKVTFDNPEKAKKYAQKLAKIYQLTVHVHGDTCHVK [I40C]	0.854 kcal/mol
TTVKLGDIKVTFDNPEKAKKYAQKLAKIYQLTVHVHMDTIHVK [G37M]	1.22 kcal/mol
TTVKLGDIKVTFDNPEKAKKYAQKLAKIYQLTVHVHDDTIHVK [G37D]	1.22 kcal/mol
TTVKLGDIKVTFDNPEKAKKYAQKLAKIYQLTVHVHQDTIHVK [G37Q]	1.27 kcal/mol
TTVKLGDIKVTFDNPEKAKKYAQKLAKIYQLTVHVHRDTIHVK [G37R]	1.13 kcal/mol
TTVKLGDIKVTFDNPEKAKKYAQKLAKIYQLTVHVHADTIHVK [G37A]	1.28 kcal/mol
TTVKLGDIKVTFDNPEKAKKYAQKLAKIYQLTVHVHWDTIHVK [G37W]	1.25 kcal/mol
TTVKLGDIKVTFDNPEKAKKYAQKLAKIYQLTVHVHKDTIHVK [G37K]	1.24 kcal/mol
TTVKLGDIKVTFDNPEKAKKYAQKLAKIYQLTVHVHFDTIHVK [G37F]	1.38 kcal/mol
TTVKLGDIKVTFDNPEKAKKYAQKLAKIYQLTVHVHPDTIHVK [G37P]	0.698 kcal/mol
TTVKLGDIKVTFDNPEKAKKYAQKLAKIYQLTVHVHSDTIHVK [G37S]	1 kcal/mol
TTVKLGDIKVTFDNPEKAKKYAQKLAKIYQLTVHVHNDTIHVK [G37N]	1.3 kcal/mol
TTVKLGDIKVTFDNPEKAKKYAQKLAKIYQLTVHVHEDTIHVK [G37E]	1.3 kcal/mol
TTVKLGDIKVTFDNPEKAKKYAQKLAKIYQLTVHVHHDTIHVK [G37H]	1.05 kcal/mol
TTVKLGDIKVTFDNPEKAKKYAQKLAKIYQLTVHVHLDTIHVK [G37L]	1.31 kcal/mol
TTVKLGDIKVTFDNPEKAKKYAQKLAKIYQLTVHVHVDTIHVK [G37V]	1.05 kcal/mol

Variant	folding stability dG
TTVKLGDIKVTFDNPEKAKKYAQKLAKIYQLTVHVHIDTIHVK [G37I]	1.04 kcal/mol
TTVKLGDIKVTFDNPEKAKKYAQKLAKIYQLTVHVHYDTIHVK [G37Y]	1.24 kcal/mol
TTVKLGDIKVTFDNPEKAKKYAQKLAKIYQLTVHVHTDTIHVK [G37T]	0.847 kcal/mol
TTVKLGDIKVTFDNPEKAKKYAQKLAKIYQLTVPVHGDTIHVK [H34P]	-0.084 kcal/mol
TTVKLGDIKVTFDNPEKAKKYAQKLAKIYQLTVIVHGDTIHVK [H34I]	2.44 kcal/mol
TTVKLGDIKVTFDNPEKAKKYAQKLAKIYQLTVEVHGDTIHVK [H34E]	2.46 kcal/mol
TTVKLGDIKVTFDNPEKAKKYAQKLAKIYQLTVDVHGDTIHVK [H34D]	1.58 kcal/mol
TTVKLGDIKVTFDNPEKAKKYAQKLAKIYQLTVNVHGDTIHVK [H34N]	1.34 kcal/mol
TTVKLGDIKVTFDNPEKAKKYAQKLAKIYQLTVAVHGDTIHVK [H34A]	1.9 kcal/mol
TTVKLGDIKVTFDNPEKAKKYAQKLAKIYQLTVFVHGDTIHVK [H34F]	2.39 kcal/mol
TTVKLGDIKVTFDNPEKAKKYAQKLAKIYQLTVYVHGDTIHVK [H34Y]	2.39 kcal/mol
TTVKLGDIKVTFDNPEKAKKYAQKLAKIYQLTVCVHGDTIHVK [H34C]	3.12 kcal/mol
TTVKLGDIKVTFDNPEKAKKYAQKLAKIYQLTVMVHGDTIHVK [H34M]	2.08 kcal/mol
TTVKLGDIKVTFDNPEKAKKYAQKLAKIYQLTVSVHGDTIHVK [H34S]	2.03 kcal/mol
TTVKLGDIKVTFDNPEKAKKYAQKLAKIYQLTVGVHGDTIHVK [H34G]	0.853 kcal/mol
TTVKLGDIKVTFDNPEKAKKYAQKLAKIYQLTVLVHGDTIHVK [H34L]	2.06 kcal/mol
TTVKLGDIKVTFDNPEKAKKYAQKLAKIYQLTVTVHGDTIHVK [H34T]	2.12 kcal/mol
TTVKLGDIKVTFDNPEKAKKYAQKLAKIYQLTVKVHGDTIHVK [H34K]	1.71 kcal/mol
TTVKLGDIKVTFDNPEKAKKYAQKLAKIYQLTVRVHGDTIHVK [H34R]	1.64 kcal/mol
TTVKLGDIKVTFDNPEKAKKYAQKLAKIYQLTVVVHGDTIHVK [H34V]	2.59 kcal/mol
TTVKLGDIKVTFDNPEKAKKYAQKLAKIYQLTVWVHGDTIHVK [H34W]	2.15 kcal/mol
TTVKLGDIKVTFDNPEKAKKYAQKLAKIYQLTVQVHGDTIHVK [H34Q]	2.11 kcal/mol
